Results reported in paper PMC10786891, “Massively parallel profiling of RNA-targeting CRISPR-Cas13d”.

T1: EsCas13d, nuclease-dead (Eubacterium siraeum, UniProt B0MS50, R295A;H300A;R849A;H854A)
T1 sequence: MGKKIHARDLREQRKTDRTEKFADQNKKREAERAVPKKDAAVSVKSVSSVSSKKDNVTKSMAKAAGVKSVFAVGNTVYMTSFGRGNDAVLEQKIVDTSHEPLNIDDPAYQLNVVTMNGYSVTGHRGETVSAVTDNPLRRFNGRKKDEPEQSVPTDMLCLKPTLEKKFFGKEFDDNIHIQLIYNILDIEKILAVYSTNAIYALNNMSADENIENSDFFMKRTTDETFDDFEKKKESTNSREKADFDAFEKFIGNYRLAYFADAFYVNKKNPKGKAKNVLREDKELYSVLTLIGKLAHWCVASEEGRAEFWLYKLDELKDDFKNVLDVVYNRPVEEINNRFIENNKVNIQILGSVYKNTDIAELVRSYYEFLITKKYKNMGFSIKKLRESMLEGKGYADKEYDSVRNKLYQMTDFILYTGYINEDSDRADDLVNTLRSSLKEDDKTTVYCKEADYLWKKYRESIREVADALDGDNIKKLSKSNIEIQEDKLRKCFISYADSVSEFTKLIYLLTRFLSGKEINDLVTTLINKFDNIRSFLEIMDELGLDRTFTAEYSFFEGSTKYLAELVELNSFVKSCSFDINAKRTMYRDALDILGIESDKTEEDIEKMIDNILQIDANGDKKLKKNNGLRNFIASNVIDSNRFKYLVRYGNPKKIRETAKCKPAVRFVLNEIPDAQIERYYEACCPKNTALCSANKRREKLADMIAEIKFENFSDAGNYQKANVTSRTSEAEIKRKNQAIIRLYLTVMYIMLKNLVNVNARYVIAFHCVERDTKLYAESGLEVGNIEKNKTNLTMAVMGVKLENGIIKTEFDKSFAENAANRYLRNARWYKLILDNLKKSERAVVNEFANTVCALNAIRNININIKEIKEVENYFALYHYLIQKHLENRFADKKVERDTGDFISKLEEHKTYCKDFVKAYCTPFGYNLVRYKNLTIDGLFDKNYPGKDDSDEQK

B1: target 1 insU 3' of 22,insU 3' of 21 (mixed)
RNA 1: CACCCGUGCAAAAAUGCAGGGGUCUAAAACUGAGCGGAUAACCUCUCUAUGG
RNA 2: GGGAAUGGAUCCACAUCUACGAAUUCGUACUCUAUAGAGAGGUUAUCCGCUCACCGAGAUCGGAAGAGCACACGU
B2: target 1 U10G,A20U (mixed)
RNA 1: CACCCGUGCAAAAAUGCAGGGGUCUAAAACUGAGCGGAUAACCUCUCUAUGG
RNA 2: GGGAAUGGAUCCACAUCUACGAAUUCGUACCUUAGAGAGGUGAUCCGCUCACCGAGAUCGGAAGAGCACACGU
B3: target 1 insG 3' of 19,insG 3' of 14 (mixed)
RNA 1: CACCCGUGCAAAAAUGCAGGGGUCUAAAACUGAGCGGAUAACCUCUCUAUGG
RNA 2: GGGAAUGGAUCCACAUCUACGAAUUCGUACCAUGAGAGAGGGUUAUCCGCUCACCGAGAUCGGAAGAGCACACGU
B4: target 1 C6G,C7A (mixed)
RNA 1: CACCCGUGCAAAAAUGCAGGGGUCUAAAACUGAGCGGAUAACCUCUCUAUGG
RNA 2: GGGAAUGGAUCCACAUCUACGAAUUCGUACCAUAGAGAGGUUAUAGGCUCACCGAGAUCGGAAGAGCACACGU
B5: target 1 insG 3' of 19,insG 3' of 4 (mixed)
RNA 1: CACCCGUGCAAAAAUGCAGGGGUCUAAAACUGAGCGGAUAACCUCUCUAUGG
RNA 2: GGGAAUGGAUCCACAUCUACGAAUUCGUACCAUGAGAGAGGUUAUCCGCGUCACCGAGAUCGGAAGAGCACACGU
B6: target 1 C7A,G15U (mixed)
RNA 1: CACCCGUGCAAAAAUGCAGGGGUCUAAAACUGAGCGGAUAACCUCUCUAUGG
RNA 2: GGGAAUGGAUCCACAUCUACGAAUUCGUACCAUAGAUAGGUUAUACGCUCACCGAGAUCGGAAGAGCACACGU
B7: target 1 C7A,U11A (mixed)
RNA 1: CACCCGUGCAAAAAUGCAGGGGUCUAAAACUGAGCGGAUAACCUCUCUAUGG
RNA 2: GGGAAUGGAUCCACAUCUACGAAUUCGUACCAUAGAGAGGAUAUACGCUCACCGAGAUCGGAAGAGCACACGU
B8: target 1 G13U,C21U (mixed)
RNA 1: CACCCGUGCAAAAAUGCAGGGGUCUAAAACUGAGCGGAUAACCUCUCUAUGG
RNA 2: GGGAAUGGAUCCACAUCUACGAAUUCGUACUAUAGAGAUGUUAUCCGCUCACCGAGAUCGGAAGAGCACACGU
B9: target 1 A14C,G15U (mixed)
RNA 1: CACCCGUGCAAAAAUGCAGGGGUCUAAAACUGAGCGGAUAACCUCUCUAUGG
RNA 2: GGGAAUGGAUCCACAUCUACGAAUUCGUACCAUAGAUCGGUUAUCCGCUCACCGAGAUCGGAAGAGCACACGU
B10: target 1 C2U,A14G (mixed)
RNA 1: CACCCGUGCAAAAAUGCAGGGGUCUAAAACUGAGCGGAUAACCUCUCUAUGG
RNA 2: GGGAAUGGAUCCACAUCUACGAAUUCGUACCAUAGAGGGGUUAUCCGCUUACCGAGAUCGGAAGAGCACACGU
B11: target 1 insU 3' of 14,insC 3' of 1 (mixed)
RNA 1: CACCCGUGCAAAAAUGCAGGGGUCUAAAACUGAGCGGAUAACCUCUCUAUGG
RNA 2: GGGAAUGGAUCCACAUCUACGAAUUCGUACCAUAGAGAUGGUUAUCCGCUCACCCGAGAUCGGAAGAGCACACGU
B12: target 1 insC 3' of 20,insA 3' of 5 (mixed)
RNA 1: CACCCGUGCAAAAAUGCAGGGGUCUAAAACUGAGCGGAUAACCUCUCUAUGG
RNA 2: GGGAAUGGAUCCACAUCUACGAAUUCGUACCACUAGAGAGGUUAUCCGACUCACCGAGAUCGGAAGAGCACACGU
B13: target 1 insG 3' of 11,insC 3' of 3 (mixed)
RNA 1: CACCCGUGCAAAAAUGCAGGGGUCUAAAACUGAGCGGAUAACCUCUCUAUGG
RNA 2: GGGAAUGGAUCCACAUCUACGAAUUCGUACCAUAGAGAGGUGUAUCCGCUCCACCGAGAUCGGAAGAGCACACGU
B14: target 1 insG 3' of 19,insU 3' of 6 (mixed)
RNA 1: CACCCGUGCAAAAAUGCAGGGGUCUAAAACUGAGCGGAUAACCUCUCUAUGG
RNA 2: GGGAAUGGAUCCACAUCUACGAAUUCGUACCAUGAGAGAGGUUAUCCUGCUCACCGAGAUCGGAAGAGCACACGU
B15: target 1 insG 3' of 19,insA 3' of 8 (mixed)
RNA 1: CACCCGUGCAAAAAUGCAGGGGUCUAAAACUGAGCGGAUAACCUCUCUAUGG
RNA 2: GGGAAUGGAUCCACAUCUACGAAUUCGUACCAUGAGAGAGGUUAUACCGCUCACCGAGAUCGGAAGAGCACACGU
B16: target 1 insA 3' of 15,insC 3' of 9 (mixed)
RNA 1: CACCCGUGCAAAAAUGCAGGGGUCUAAAACUGAGCGGAUAACCUCUCUAUGG
RNA 2: GGGAAUGGAUCCACAUCUACGAAUUCGUACCAUAGAGAAGGUUACUCCGCUCACCGAGAUCGGAAGAGCACACGU
B17: target 1 insU 3' of 21,insC 3' of 15 (mixed)
RNA 1: CACCCGUGCAAAAAUGCAGGGGUCUAAAACUGAGCGGAUAACCUCUCUAUGG
RNA 2: GGGAAUGGAUCCACAUCUACGAAUUCGUACCUAUAGAGCAGGUUAUCCGCUCACCGAGAUCGGAAGAGCACACGU
B18: target 1 insU 3' of 14,insA 3' of 2 (mixed)
RNA 1: CACCCGUGCAAAAAUGCAGGGGUCUAAAACUGAGCGGAUAACCUCUCUAUGG
RNA 2: GGGAAUGGAUCCACAUCUACGAAUUCGUACCAUAGAGAUGGUUAUCCGCUCAACCGAGAUCGGAAGAGCACACGU
B19: target 1 U8G,A18G (mixed)
RNA 1: CACCCGUGCAAAAAUGCAGGGGUCUAAAACUGAGCGGAUAACCUCUCUAUGG
RNA 2: GGGAAUGGAUCCACAUCUACGAAUUCGUACCAUGGAGAGGUUAGCCGCUCACCGAGAUCGGAAGAGCACACGU
B20: target 1 U3A,U11A (mixed)
RNA 1: CACCCGUGCAAAAAUGCAGGGGUCUAAAACUGAGCGGAUAACCUCUCUAUGG
RNA 2: GGGAAUGGAUCCACAUCUACGAAUUCGUACCAUAGAGAGGAUAUCCGCACACCGAGAUCGGAAGAGCACACGU
B21: target 1 del9,del19 (mixed)
RNA 1: CACCCGUGCAAAAAUGCAGGGGUCUAAAACUGAGCGGAUAACCUCUCUAUGG
RNA 2: GGGAAUGGAUCCACAUCUACGAAUUCGUACCAAGAGAGGUUUCCGCUCACCGAGAUCGGAAGAGCACACGU
B22: target 1 insA 3' of 22,insG 3' of 14 (mixed)
RNA 1: CACCCGUGCAAAAAUGCAGGGGUCUAAAACUGAGCGGAUAACCUCUCUAUGG
RNA 2: GGGAAUGGAUCCACAUCUACGAAUUCGUACACAUAGAGAGGGUUAUCCGCUCACCGAGAUCGGAAGAGCACACGU
B23: target 1 A1U,C7A (mixed)
RNA 1: CACCCGUGCAAAAAUGCAGGGGUCUAAAACUGAGCGGAUAACCUCUCUAUGG
RNA 2: GGGAAUGGAUCCACAUCUACGAAUUCGUACCAUAGAGAGGUUAUACGCUCUCCGAGAUCGGAAGAGCACACGU
B24: target 1 insU 3' of 18,insU 3' of 15 (mixed)
RNA 1: CACCCGUGCAAAAAUGCAGGGGUCUAAAACUGAGCGGAUAACCUCUCUAUGG
RNA 2: GGGAAUGGAUCCACAUCUACGAAUUCGUACCAUAUGAGUAGGUUAUCCGCUCACCGAGAUCGGAAGAGCACACGU
B25: target 1 complement block 3-8 (mixed)
RNA 1: CACCCGUGCAAAAAUGCAGGGGUCUAAAACUGAGCGGAUAACCUCUCUAUGG
RNA 2: GGGAAUGGAUCCACAUCUACGAAUUCGUACCAUAGAGAGGUUAAGGCGACACCGAGAUCGGAAGAGCACACGU
B26: target 1 insU 3' of 14,insG 3' of 1 (mixed)
RNA 1: CACCCGUGCAAAAAUGCAGGGGUCUAAAACUGAGCGGAUAACCUCUCUAUGG
RNA 2: GGGAAUGGAUCCACAUCUACGAAUUCGUACCAUAGAGAUGGUUAUCCGCUCAGCCGAGAUCGGAAGAGCACACGU
B27: target 1 U10G,C21U (mixed)
RNA 1: CACCCGUGCAAAAAUGCAGGGGUCUAAAACUGAGCGGAUAACCUCUCUAUGG
RNA 2: GGGAAUGGAUCCACAUCUACGAAUUCGUACUAUAGAGAGGUGAUCCGCUCACCGAGAUCGGAAGAGCACACGU
B28: target 1 insC 3' of 5,insC 3' of 5 (mixed)
RNA 1: CACCCGUGCAAAAAUGCAGGGGUCUAAAACUGAGCGGAUAACCUCUCUAUGG
RNA 2: GGGAAUGGAUCCACAUCUACGAAUUCGUACCAUAGAGAGGUUAUCCGCCCUCACCGAGAUCGGAAGAGCACACGU

Target: T1, EsCas13d, nuclease-dead
Test: crRNA (strand 1, pre-loaded); Mg2+; 40 mM Tris-HCl pH 7.5, 150 mM NaCl, 6 mM MgCl2, 1 mM DTT, 0.1% Tween-20, 0.2 mg/ml BSA; 25 C; 10 min per concentration, then washed
Details: tags: His6-TwinStrep-SUMO cleaved; N-terminal SNAP kept (SNAP-Surface 488); label: 3' end held by stalled T7 RNA polymerase

Binder	Kd [nM]
B1	85 ± 28
B2	60 ± 18
B3	75 ± 16
B4	8.9 ± 0.4
B5	34.6 ± 1.9
B6	19.6 ± 2.1
B7	17.9 ± 1.3
B8	10.5 ± 0.9
B9	35 ± 6
B10	15 ± 0.7
B11	42 ± 7
B12	7.3 ± 1.1
B13	51 ± 8
B14	82 ± 9
B15	57 ± 7
B16	9 ± 0.9
B17	55 ± 7
B18	43 ± 6
B19	66 ± 21
B20	12.7 ± 0.7
B21	86 ± 33
B22	21.7 ± 3.2
B23	9.4 ± 1
B24	50 ± 12
B25	9.9 ± 0.4
B26	45 ± 4
B27	11.7 ± 0.8
B28	25.7 ± 3.2
